In this assay the target is Chikungunya virus nuclear capsid protein (Chikungunya virus). Briefly: cryo-EM structure.

Where “and” joins values, the source holds several entries; their conditions need not be identical. Equal values may be shown once.

One may read the stoichiometry N as the number of molecules, sites or subunits per partner or assembly.

Turning to “Chikungunya virus nuclear capsid protein (natural protein)”, the stoichiometry N was 5 and 6.

Values taken from PMC3614025.
